In PMC4683621:
Where “and” joins values, the source holds several entries; their conditions need not be identical. Identical values can stand only once.

Biological target: wild-type PaCLPP (Podospora anserina (endogenous in P. anserina mitochondria))
Assay: native gel or EMSA; BN-PAGE of mitochondrial protein extracts from P. anserina strains, western blot with a PaCLPP- or HsCLPP-specific antibody

wild-type PaCLPP (enzyme) was tested, and the stoichiometry N was 7 and 14.
